To fix the notation:
B1: Mdv1(94-314) K215A/K216A, containing the NTE and coiled coil (domain or fragment, S. cerevisiae, UniProt P47025 94-314, looked up)
chain: DNKTCFRMLTYISDDLLNEIPTKEGLKSDADGKLLTEGGENENLRKNASKKETSLFQGFKSYLPIAELAIENTERLNYDTNGTSGTVGAKDVMSKTNERDEIHTELPNFQDSFLIPPGVETAAISSSYSPSALKSFSQTLVNSLEFLNIQKNSTLSEIRDIEVEVENLRQKKEKLLGKIANIEQNQLLLEDNLKQIDDRLDFLEEYGLEVIEANSDENAED
B2: Yeast Fis1(1-129), lacking the transmembrane segment (domain or fragment, S. cerevisiae, UniProt P40515 1-129, looked up)
chain: MTKVDFWPTLKDAYEPLYPQQLEILRQQVVSEGGPTATIQSRFNYAWGLIKSTDVNDERLGVKILTDIYKEAESRRRECLYYLTIGCYKLGEYSMAKRYVDTLFEHERNNKQVGALKSMVEDKIQKETL

Data set [1] deals with the molecule itself. Kind of data set: crystal structure.
Data set [2] concerns the target B1. Briefly: crystal structure.

As for B1, the binding result in data set [1] was “binds”.

For B2, in data set [2], the binding result is reported as “binds”.

Source of the values: paper PMC3323041 (The Journal of Biological Chemistry, 2012).
